Here are results for 30 sequences from the nanobody polyreactivity screen of Harvey et al. (2022).

This data set can be described thus: yeast display, Sf9 membrane polyspecificity reagent, FACS + sequencing; frameworks hold sequencing errors. The method in brief: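 A synthetic nanobody library was expressed on Saccharomyces cerevisiae BJ5465 by galactose induction for 36–48 hours. The library was stained for 1 hour at 4 °C with 10% biotinylated, detergent-solubilized Sf9 membrane reagent and enriched with streptavidin microbeads before FACS. Low and high (top ~1%) gates were set on anti-HA fluorescence for expression and streptavidin fluorescence for reagent binding, and each polyreactivity label reflects the gate of origin.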
In the case of “QVQIVESGGGLVQAGGSLRLRCAASGLTFYVYVMGWYRQAPGKEREFVAAISYDGDSTYYADSVKGRFTISRDNAKNTVFFQMNSLIAEDTAVYYCNADRYPYWGYDYWGQGTQVTVSS”, the “polyreactivity (PSR sort gate)” value was “low polyreactivity”. Regarding “QVQLVESGGGLVQAGGSLRLSCAASGRIFPYNAMGWYRQAPGKERELVAAISFGGGRTYYADSVKGRFTISRDNAKNTVYLQMNRLKPEDTAVYYCNTASPQDIVFRVFYGGDYWGQGTQVTVSS”, the “polyreactivity (PSR sort gate)” value is “low polyreactivity”.

Take “QVQLVESGGGLVQAGGSLRLSCAASGIIFPYYAMGWYRQAPGKERELVAGISSSGGITYADSVKGRFTISRDNAKNTVYLQMNSLKPEDTAVYYCNAEYQWLEYDFWGQGTQVTVSS”: the “polyreactivity (PSR sort gate)” value was “low polyreactivity”. With “QVQLVESGGGLVQAGGSLRLSCAASGSIFTYYAMGWYRQAPGKERELVADIRWSGGSTYYADSVKGRFTISRDNAKNTVYLQMNSLKPEDTAVYFCNARYYSYWPIYNFDYWGQGTQVTVSS” the entry was “low polyreactivity”.

In the case of “QVQLVESGGGLVQEVGSLRISCAASGRIFYVYSMGWYRQAPGKERELVAAITSGGRTDYADSVKGRFTISRDNAKNTVYLQLNSLKPEDTAVYYCAAGGGWNGHRHRWLYGYGYWGQGTQVTVSS”, the “polyreactivity (PSR sort gate)” value is “high polyreactivity”. For “QVQLVESGGGLVQAGGSLRLSCAASGFTFRWYAMGWYRQEPGKERELVAAITSSGGRTYYADSVKGRFTISRDNAKNTVYLQMNSMKPEDTAVYYCATDLRTRKYDYWGQGTQVTVSS”, the “polyreactivity (PSR sort gate)” value is listed as “high polyreactivity”.

In the case of “QVQLVESGGCLVKAGGSLRLSCAASGSTFHYYPMGWYRQAPGKERELFAAISTSGVRTYYADSVKGRFTISRDNAKNTVYLQMNRLKPEDTAVYYCAARRGYVKGKTYDYWGQGSQVTVSS”, the “polyreactivity (PSR sort gate)” value is “high polyreactivity”. Consider “QVQLVESGVGLVQAGGSLRLSCAASGLIFQGYAMGWYTQAPGKERELVAAITLSGGSTYYADSVKGRFTISRDNAKITDYLLMNSLKPEDTAVYYCNAYYPDEPSLYDYWGQGTQVTVSS”, for which the “polyreactivity (PSR sort gate)” value was “low polyreactivity”.

Take “QVQLVESGGGLVQAGGSLRLSCAASGFIFLGYAMGWYRQAPGKERELVAAISSDSDTNYADSVKGRFTISRDNAKNTVFLQMNSLKPEDTAVYYCNADIDSYREMDYWGQGTLVTVSS”: the “polyreactivity (PSR sort gate)” value is given as “low polyreactivity”.

As for “QVQLVESRGGLVQAGGSLRLSCAASGLIFLHNAMGWYRQAPGKERELVAAIRDGDSTNYADSVKGRFTISRDNAKNTVYLQMNSLKPEDTAVYYCAKDPTLVAYAPGRYDYWGQGTQVTVSS”, the “polyreactivity (PSR sort gate)” value is “low polyreactivity”. For “QVQLVESGGGLVQAGGSLRLSCAASGSTFNVYAMGWYRQAPGKERDLVAAIDSGDSTNYADSVKGRFTISRDNAKNTVYLEMNSLKPEDTAVYYCAVGYWDSRYRYDWPNSDYWGQGTQVTVSS”, the “polyreactivity (PSR sort gate)” value is listed as “low polyreactivity”. With “QVQLVESGGGLVQAGGSLRLSCAASGSIFSSYGMGWYRQAPGKERELVATITGSGGSTYYSDSVKGRLTISRVNAKNTVYLQMNSLKPEDTAVYYCATRLGWFVKYYTGRYYYWGQGTQVTVSS”, the “polyreactivity (PSR sort gate)” value is recorded as “high polyreactivity”.

“QVQLVESGGGLVQAGGSLRLSCAASGLIFPPNVMGWYRQAPWKERELVAAITSSGSTKYADSVKGRFTISRDNAKNTVYLQMNSLKPEDTAVYYCARDQTWSYQPWYYLSYPQYEYWGQGTQVTVSS”: the “polyreactivity (PSR sort gate)” value is reported as “low polyreactivity”. For the sequence “QVQLVESGGGLVQAGGSLRLSCAASGSIFQSNAMGWYRQAPGKEREFVAAITASGGRTYYADSVKGRFTISRDNAKNTDYLLMNSLKPEDTAVYFCAARGRYYWGGRSYDYWGHGTQVTVSS”, the “polyreactivity (PSR sort gate)” value is on record as “high polyreactivity”. Under “QVQRVESGGGLVQAGASLRLSCAASGSTFDPYAKGWYRQAPGKERELVAAISGRGGSTYYADSVKGRFTISRDNAKNTLYLQMNSLKPEDTADYYCNAEGEYRRDRYDYWGQGTQVTVSS” stands “low polyreactivity”; under “QVQLVESVRGLVQAGGSLRLICDASGRTFPRYAKGWNRQAPGKEWEFVAAIRYSGDNTYYADSVKGRFTISRDNAKNTVYLQMNSLKPEDTAVYYCAARTYGNYRYSTYYYWGQGTQVTVSS”, “high polyreactivity”. For “QVQLVESGGGLVQAGGSLRLSCAASGSIFRKNAMGWYRQAPGKERELVAAISSSGGRTYYADSVKGRFTISRDNAKNTVYLQMNSLKPEDTAVYYCNTGPGQSFRYNYWGQGTQVTVSS”, the “polyreactivity (PSR sort gate)” value is reported as “high polyreactivity”. With “QVQLVESGGGLVQAGGSLRLSCAASGRIFAVNAMGLYRQAPGKERELVARIRRIGGSTYYADSVKGRFTISRDNAKNTVYLQMNSQKPEDTAVYYCAAVSRVWLNLYNYWGQGTQVTVSS”, the “polyreactivity (PSR sort gate)” value was “high polyreactivity”.

For “QVQLVESGGGLVQAGVSLRLSYADSGPIFYKYVMGWYRQAPGKEREMDAAINRSGGTTYYADSVKGRFTISRDKAMNTVYLQMNRLKREDTAVYYCNATLPDYWRYYYYQCGDDYWGQGTQVTVSS”, the “polyreactivity (PSR sort gate)” value is “low polyreactivity”.

Turning to “QVQLVESGGGLVQAGGSLRLICAASGRTFVYYAMGWYRQAPGKERELVAAISSSGGSTSYADSVKGRFTISRDNAKNTVYLQMNSLKPEDTAFYYCAADVSVSGYYYWGQGTQVTVSS”, the “polyreactivity (PSR sort gate)” value is recorded as “high polyreactivity”.

As for “QVQLVESGGGLVQAGGSLRLSCAASGSNFAINAMGWYRQAPGKERELVAAITRTASTYADSVKGRFTISRDNAKNTVYLQMNSLKPEDTAVYYCNADFAYRYYYWGQGTQVTVSS”, the “polyreactivity (PSR sort gate)” value is given as “low polyreactivity”.

Take “QVQLVESGGGLVQAGGSLRLSCAASGFTFYNYAMGWYRQAPGKERELVAAITSSGGRTYYADSVKGRFTISRDNAKNTVYLQMNSLKPEDTAVYYCAATGFYLRGEYYYCGQGTQVTVSS”: the “polyreactivity (PSR sort gate)” value is on record as “low polyreactivity”. Under “QVQLVESGGGLVQAGGSLRLSCAASGRTFHPYAMGWYRQAPGKERELVAVITTSGSSTYYADSVKGRFTISRDNAKNTVYLQMNSLKPEDTAVYYCAALYWRHQAARYYYWGQGTQVTVSS” stands “high polyreactivity”; under “QVQLVESGGGLVQAGGSLRLSCAASGSIFVYNTMGWYREAPGKERELVASITYSGGSTYYADSVKGRFTISRDNAKNTVYLQMNSLKPEDTAVYYCNTDDVALQWDWYPYPYDYWGQGTQVTVSS”, “low polyreactivity”. With “QVQLVESGGCLVQAGGSLRLSCSASGRIFNTYAMGWYRQAPGKERDLVARISSGGTTYYADSVKGRFTISRDNAKNTVYLQMNSLKPEDTAVYYCNVRAVTPTRSRPFRYDYWGQGTQVTVSS” the entry was “high polyreactivity”; with “QVQLVESGRGLVQAGGSLRLSCAASGSTFDGYAMGWYRQAPGKERELVAAINWGGGSTRYADSVKGRFTISRDNAKNTVYLQMNSLKPEDTAVYYCAKYTSSRFDAFNYWGQGTQVTVSS”, “high polyreactivity”. With “QVQLVESGGGLVQAGGSLRLSCAASGRTFYYNAMGWYRQAPGKERELVAAISSRGGNTYYADSVKGRFTISRDNAKNTVYYQMNSLKPEDTAVYYCARRYPYPAYEYGYWGQGTQVTVSS” the entry was “high polyreactivity”; with “QVQLVESGGGLVQAGGSLRLSCAASGFIFEYYAMGWYRQAPGKERELVAAISSSGGSTYYADSVKGRFTISRDNAKITVYLQINSLKPEDTAVYYCAKDYAPSAKKLHYWGQGTQVTVSS”, “low polyreactivity”. As for “QVQLVESGGGLVQAGGSLRLSCAASGRTFYFYAMGWYRQAPGKERELVAAIDFSGDSTYYADSVKGRFTISRDNAKNTVYLQMNSLKPEDTAVYYCAAEIYIGEQPYDYWGQGTQVTVSS”, the “polyreactivity (PSR sort gate)” value is listed as “low polyreactivity”. Take “QVQLVESGGGLVQAGGSLRLSCAASGFIFPTYAMGWYRQAPGKERELVATITSAVRTKYADSVKGRFTISRDNAKNTVYLQMNSLKPEDTAVYYSAAAYTVARFYRYYYWGQGTQVTVSS”: the “polyreactivity (PSR sort gate)” value was “high polyreactivity”.
